Source: the supplement of paper PMC9112550, “Optimization of the antimicrobial peptide Bac7 by deep mutational scanning” (BMC Biology, 2022)

tested on: Escherichia coli TOP10; assay: shrunken log2 fold change of peptide-encoding DNA abundance (4.5 h post-induction vs induction); higher = less antimicrobial activity (less host growth inhibition); details: time post-induction: 4.5 h; library: site-saturation at positions 5, 18, 19, 20
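Note: peptides expressed intracellularly from a pBAD plasmid library in pooled LB shake-flask culture, induced with 0.3% L-arabinose, DNA abundance read by NGS, three biological replicates, DESeq2 with apeglm shrinkage.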

Row | Sequence | shrunken log2 fold change
1 | RRIRPRPPRLPRPRPRPDKFPRP | -0.233
2 | RRIRPRPPRLPRPRPRPDLDPRP | 0.114
3 | RRIRPRPPRLPRPRPRPDLHPRP | -0.316
4 | RRIRPRPPRLPRPRPRPDLPPRP | 0.315
5 | RRIRPRPPRLPRPRPRPDLRPRP | -0.124
6 | RRIRPRPPRLPRPRPRPDLSPRP | 0.158
7 | RRIRPRPPRLPRPRPRPDMLPRP | -0.147
8 | RRIRPRPPRLPRPRPRPDNPPRP | -0.00669
9 | RRIRPRPPRLPRPRPRPDPFPRP | -0.0897
10 | RRIRPRPPRLPRPRPRPDPNPRP | -0.133
11 | RRIRPRPPRLPRPRPRPDQAPRP | -0.0505
12 | RRIRPRPPRLPRPRPRPDQCPRP | 0.139
13 | RRIRPRPPRLPRPRPRPDQTPRP | 0.0118
14 | RRIRPRPPRLPRPRPRPDRHPRP | -0.31
15 | RRIRPRPPRLPRPRPRPDRSPRP | -0.1
16 | RRIRPRPPRLPRPRPRPDRTPRP | -0.25
17 | RRIRPRPPRLPRPRPRPDSCPRP | 0.0412
18 | RRIRPRPPRLPRPRPRPDSEPRP | -0.208
19 | RRIRPRPPRLPRPRPRPDSGPRP | 0.0463
20 | RRIRPRPPRLPRPRPRPDTEPRP | -0.48
21 | RRIRPRPPRLPRPRPRPDVVPRP | -0.00973
22 | RRIRPRPPRLPRPRPRPDYSPRP | -0.815

Row | Sequence | shrunken log2 fold change
23 | RRIRPRPPRLPRPRPRPEDFPRP | -0.0193
24 | RRIRPRPPRLPRPRPRPEDRPRP | 0.0448
25 | RRIRPRPPRLPRPRPRPEEKPRP | -0.0155
26 | RRIRPRPPRLPRPRPRPEEQPRP | 0.00406
27 | RRIRPRPPRLPRPRPRPEFAPRP | 0.602
28 | RRIRPRPPRLPRPRPRPEHGPRP | -0.0552
29 | RRIRPRPPRLPRPRPRPEKPPRP | -0.129
30 | RRIRPRPPRLPRPRPRPENQPRP | 0.0738
31 | RRIRPRPPRLPRPRPRPEQAPRP | 0.0776
32 | RRIRPRPPRLPRPRPRPEQNPRP | -0.199
33 | RRIRPRPPRLPRPRPRPESTPRP | 0.118
34 | RRIRPRPPRLPRPRPRPESWPRP | 1.54
35 | RRIRPRPPRLPRPRPRPEWCPRP | -0.0771
36 | RRIRPRPPRLPRPRPRPEWVPRP | 0.332
37 | RRIRPRPPRLPRPRPRPEYDPRP | 0.101
38 | RRIRPRPPRLPRPRPRPEYPPRP | 0.045
39 | RRIRPRPPRLPRPRPRPEYTPRP | -0.0863
40 | RRIRPRPPRLPRPRPRPFAKPRP | 0.0716
41 | RRIRPRPPRLPRPRPRPFATPRP | 0.0676
42 | RRIRPRPPRLPRPRPRPFAWPRP | 0.169
43 | RRIRPRPPRLPRPRPRPFCDPRP | -0.233
44 | RRIRPRPPRLPRPRPRPFCGPRP | 0.00967

Row | Sequence | shrunken log2 fold change
45 | RRIRPRPPRLPRPRPRPFDTPRP | -0.126
46 | RRIRPRPPRLPRPRPRPFFAPRP | 0.468
47 | RRIRPRPPRLPRPRPRPFINPRP | -0.382
48 | RRIRPRPPRLPRPRPRPFIPPRP | -0.266
49 | RRIRPRPPRLPRPRPRPFIRPRP | 0.00477
50 | RRIRPRPPRLPRPRPRPFITPRP | -0.678
51 | RRIRPRPPRLPRPRPRPFLDPRP | -0.413
52 | RRIRPRPPRLPRPRPRPFLQPRP | -0.207
53 | RRIRPRPPRLPRPRPRPFMGPRP | -0.448
54 | RRIRPRPPRLPRPRPRPFMYPRP | -0.0369
55 | RRIRPRPPRLPRPRPRPFNPPRP | -0.296
56 | RRIRPRPPRLPRPRPRPFPNPRP | -0.0765
57 | RRIRPRPPRLPRPRPRPFPTPRP | -0.189
58 | RRIRPRPPRLPRPRPRPFQAPRP | -0.216
59 | RRIRPRPPRLPRPRPRPFQFPRP | -0.467
60 | RRIRPRPPRLPRPRPRPFRSPRP | -0.152
61 | RRIRPRPPRLPRPRPRPFTLPRP | -0.379
62 | RRIRPRPPRLPRPRPRPFTNPRP | -0.286
63 | RRIRPRPPRLPRPRPRPFTYPRP | -0.0519
64 | RRIRPRPPRLPRPRPRPFVIPRP | 0.00225
65 | RRIRPRPPRLPRPRPRPFVNPRP | -0.196
66 | RRIRPRPPRLPRPRPRPFYEPRP | -0.105

Row | Sequence | shrunken log2 fold change
67 | RRIRPRPPRLPRPRPRPGAMPRP | 0.454
68 | RRIRPRPPRLPRPRPRPGCLPRP | 0.339
69 | RRIRPRPPRLPRPRPRPGCTPRP | 0.104
70 | RRIRPRPPRLPRPRPRPGDEPRP | 0.156
71 | RRIRPRPPRLPRPRPRPGDLPRP | 0.076
72 | RRIRPRPPRLPRPRPRPGFNPRP | -0.173
73 | RRIRPRPPRLPRPRPRPGGNPRP | -0.0884
74 | RRIRPRPPRLPRPRPRPGHNPRP | -0.133
75 | RRIRPRPPRLPRPRPRPGKAPRP | 0.37
76 | RRIRPRPPRLPRPRPRPGMYPRP | -0.0544
77 | RRIRPRPPRLPRPRPRPGPTPRP | 0.0907
78 | RRIRPRPPRLPRPRPRPGQWPRP | 0.236
79 | RRIRPRPPRLPRPRPRPGRAPRP | 0.549
80 | RRIRPRPPRLPRPRPRPGRWPRP | 0.551
81 | RRIRPRPPRLPRPRPRPGSEPRP | 0.0814
82 | RRIRPRPPRLPRPRPRPGSMPRP | -0.149
83 | RRIRPRPPRLPRPRPRPGSPPRP | 0.0761
84 | RRIRPRPPRLPRPRPRPGTNPRP | 1.46
85 | RRIRPRPPRLPRPRPRPGTPPRP | 0.0946
86 | RRIRPRPPRLPRPRPRPGTQPRP | 0.185
87 | RRIRPRPPRLPRPRPRPGTRPRP | 0.134
88 | RRIRPRPPRLPRPRPRPGVAPRP | 0.27

Row | Sequence | shrunken log2 fold change
89 | RRIRPRPPRLPRPRPRPGVKPRP | -0.0608
90 | RRIRPRPPRLPRPRPRPGWAPRP | 0.623
91 | RRIRPRPPRLPRPRPRPGWVPRP | 0.405
92 | RRIRPRPPRLPRPRPRPGYAPRP | 0.177
93 | RRIRPRPPRLPRPRPRPHAMPRP | -0.0838
94 | RRIRPRPPRLPRPRPRPHAVPRP | 0.0549
95 | RRIRPRPPRLPRPRPRPHCFPRP | -0.497
96 | RRIRPRPPRLPRPRPRPHCNPRP | -0.52
97 | RRIRPRPPRLPRPRPRPHGLPRP | 0.026
98 | RRIRPRPPRLPRPRPRPHHQPRP | -0.399
99 | RRIRPRPPRLPRPRPRPHHYPRP | -0.37
100 | RRIRPRPPRLPRPRPRPHILPRP | -0.381
101 | RRIRPRPPRLPRPRPRPHIMPRP | -0.663
102 | RRIRPRPPRLPRPRPRPHKEPRP | 0.163
103 | RRIRPRPPRLPRPRPRPHLRPRP | 0.151
104 | RRIRPRPPRLPRPRPRPHLWPRP | 0.181
105 | RRIRPRPPRLPRPRPRPHMFPRP | 0.00976
106 | RRIRPRPPRLPRPRPRPHNRPRP | -0.0456
107 | RRIRPRPPRLPRPRPRPHPFPRP | -0.115
108 | RRIRPRPPRLPRPRPRPHQEPRP | 4.12
109 | RRIRPRPPRLPRPRPRPHQSPRP | 0.238
